Holding throughout (assay): ELISA; titration: wells sensitized with 1 μg/ml of collagen type I, II, III, IV, VI or C1q; increasing concentrations of C‐SSURE or N‐SSURE (0,016–10 μg/ml), detected with anti‐His antibody; dissociation constants calculated from the titration curves (Figure 3c,d)
Test [1] has as its target type III collagen (calf (from calfskin)) (UniProt P04258).
Test [2] has as its target complement component C1q (human) (UniProt P02745).
Test [3] deals with type I collagen (calf (from calfskin)) (UniProt P02453).
The target of the next test is human type VI collagen (human, UniProt P12109 20-1028; P12110 21-1019; P12111 26-3177). The note with it: both partners purified.
In another test the target is human type IV collagen (human, UniProt P02462 173-1669; P08572 184-1712). The settings on record: both partners purified.
Chain of human type IV collagen (P02462 173-1669, chain 1 of 2): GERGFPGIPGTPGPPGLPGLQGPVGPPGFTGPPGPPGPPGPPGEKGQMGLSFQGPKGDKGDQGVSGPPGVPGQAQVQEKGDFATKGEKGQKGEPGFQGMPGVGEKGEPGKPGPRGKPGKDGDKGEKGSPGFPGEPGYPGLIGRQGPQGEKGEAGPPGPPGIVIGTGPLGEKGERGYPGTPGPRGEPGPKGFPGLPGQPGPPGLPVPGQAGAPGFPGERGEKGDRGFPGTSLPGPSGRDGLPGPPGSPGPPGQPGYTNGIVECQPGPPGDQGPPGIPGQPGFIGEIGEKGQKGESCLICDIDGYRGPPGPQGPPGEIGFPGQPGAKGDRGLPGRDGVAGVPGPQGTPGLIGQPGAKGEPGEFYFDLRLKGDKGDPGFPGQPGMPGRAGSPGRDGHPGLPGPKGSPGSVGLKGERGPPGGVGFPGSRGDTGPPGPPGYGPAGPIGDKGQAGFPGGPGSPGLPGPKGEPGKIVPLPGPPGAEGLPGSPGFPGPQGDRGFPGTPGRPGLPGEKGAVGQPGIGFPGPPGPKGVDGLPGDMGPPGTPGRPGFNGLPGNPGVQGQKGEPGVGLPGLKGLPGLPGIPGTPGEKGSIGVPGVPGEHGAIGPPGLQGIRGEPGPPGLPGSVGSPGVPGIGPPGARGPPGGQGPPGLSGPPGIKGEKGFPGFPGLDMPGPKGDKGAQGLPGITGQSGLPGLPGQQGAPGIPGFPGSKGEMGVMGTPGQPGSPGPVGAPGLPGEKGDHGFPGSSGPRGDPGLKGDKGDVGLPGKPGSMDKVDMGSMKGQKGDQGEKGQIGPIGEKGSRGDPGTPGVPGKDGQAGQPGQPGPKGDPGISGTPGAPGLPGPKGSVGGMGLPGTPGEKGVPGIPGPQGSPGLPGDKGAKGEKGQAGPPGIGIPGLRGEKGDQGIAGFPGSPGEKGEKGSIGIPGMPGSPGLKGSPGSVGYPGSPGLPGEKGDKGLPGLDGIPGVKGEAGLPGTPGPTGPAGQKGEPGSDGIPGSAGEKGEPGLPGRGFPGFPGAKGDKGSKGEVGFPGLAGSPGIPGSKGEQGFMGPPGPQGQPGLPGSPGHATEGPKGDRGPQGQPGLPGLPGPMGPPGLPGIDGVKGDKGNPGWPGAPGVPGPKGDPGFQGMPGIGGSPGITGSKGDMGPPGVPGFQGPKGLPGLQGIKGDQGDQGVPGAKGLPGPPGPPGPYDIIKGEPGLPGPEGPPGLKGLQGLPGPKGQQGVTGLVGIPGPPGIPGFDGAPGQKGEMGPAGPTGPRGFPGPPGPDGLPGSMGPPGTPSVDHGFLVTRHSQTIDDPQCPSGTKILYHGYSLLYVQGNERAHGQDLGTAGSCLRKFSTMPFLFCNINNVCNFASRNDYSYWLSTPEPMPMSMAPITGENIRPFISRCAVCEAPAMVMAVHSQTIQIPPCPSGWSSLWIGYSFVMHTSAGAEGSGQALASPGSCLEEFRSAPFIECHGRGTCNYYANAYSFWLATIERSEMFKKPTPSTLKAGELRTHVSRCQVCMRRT
Chain of human type IV collagen (P08572 184-1712, chain 2 of 2): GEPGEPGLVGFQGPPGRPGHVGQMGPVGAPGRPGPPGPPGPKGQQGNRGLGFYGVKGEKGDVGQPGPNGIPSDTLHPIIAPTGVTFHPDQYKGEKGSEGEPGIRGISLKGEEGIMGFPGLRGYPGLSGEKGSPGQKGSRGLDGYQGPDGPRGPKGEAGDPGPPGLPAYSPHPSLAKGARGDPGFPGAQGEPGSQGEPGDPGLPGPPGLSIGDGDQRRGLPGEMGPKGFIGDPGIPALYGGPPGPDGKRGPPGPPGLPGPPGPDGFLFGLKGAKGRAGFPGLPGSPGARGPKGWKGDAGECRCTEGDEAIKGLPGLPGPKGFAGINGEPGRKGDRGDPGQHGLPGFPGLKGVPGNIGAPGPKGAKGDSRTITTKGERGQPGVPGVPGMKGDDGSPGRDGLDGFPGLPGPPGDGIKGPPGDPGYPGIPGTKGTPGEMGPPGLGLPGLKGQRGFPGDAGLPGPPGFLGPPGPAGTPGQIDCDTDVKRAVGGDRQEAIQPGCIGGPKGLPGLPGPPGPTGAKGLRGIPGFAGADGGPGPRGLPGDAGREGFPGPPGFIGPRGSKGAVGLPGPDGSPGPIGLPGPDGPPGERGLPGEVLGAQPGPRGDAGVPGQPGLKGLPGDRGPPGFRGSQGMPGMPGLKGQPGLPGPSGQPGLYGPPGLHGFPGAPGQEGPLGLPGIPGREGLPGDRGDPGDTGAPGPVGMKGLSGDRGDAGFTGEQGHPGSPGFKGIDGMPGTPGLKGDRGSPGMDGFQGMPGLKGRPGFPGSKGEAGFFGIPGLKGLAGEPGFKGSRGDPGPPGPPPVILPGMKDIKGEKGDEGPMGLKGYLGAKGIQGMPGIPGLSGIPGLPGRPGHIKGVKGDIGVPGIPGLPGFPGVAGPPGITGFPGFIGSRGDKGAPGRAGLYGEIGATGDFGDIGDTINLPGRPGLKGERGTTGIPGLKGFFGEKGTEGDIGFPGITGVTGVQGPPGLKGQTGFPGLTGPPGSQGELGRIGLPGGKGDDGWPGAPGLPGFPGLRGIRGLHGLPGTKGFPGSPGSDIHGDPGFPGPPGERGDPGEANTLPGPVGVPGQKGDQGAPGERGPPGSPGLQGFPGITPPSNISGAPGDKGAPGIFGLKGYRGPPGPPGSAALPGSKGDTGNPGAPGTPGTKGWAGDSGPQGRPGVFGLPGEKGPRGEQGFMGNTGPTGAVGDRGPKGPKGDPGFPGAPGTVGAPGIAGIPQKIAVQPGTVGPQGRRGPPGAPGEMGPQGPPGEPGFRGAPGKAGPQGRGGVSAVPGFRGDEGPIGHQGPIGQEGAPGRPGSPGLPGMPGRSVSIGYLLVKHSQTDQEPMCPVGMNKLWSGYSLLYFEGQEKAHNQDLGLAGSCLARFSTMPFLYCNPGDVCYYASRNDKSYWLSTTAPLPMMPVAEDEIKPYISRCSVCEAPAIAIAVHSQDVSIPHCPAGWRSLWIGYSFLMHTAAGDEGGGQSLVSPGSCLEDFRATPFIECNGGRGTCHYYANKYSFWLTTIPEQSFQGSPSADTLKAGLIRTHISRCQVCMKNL

Chain of complement component C1q (human) (P02745 23-245, chain 1 of 3): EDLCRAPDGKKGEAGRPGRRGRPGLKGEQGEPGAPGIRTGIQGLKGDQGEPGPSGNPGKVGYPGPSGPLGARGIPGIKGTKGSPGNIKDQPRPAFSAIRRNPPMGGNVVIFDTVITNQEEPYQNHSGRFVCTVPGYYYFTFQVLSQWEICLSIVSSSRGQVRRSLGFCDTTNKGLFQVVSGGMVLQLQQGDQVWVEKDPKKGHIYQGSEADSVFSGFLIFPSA
Chain of complement component C1q (human) (P02746 28-253, chain 2 of 3, further chain): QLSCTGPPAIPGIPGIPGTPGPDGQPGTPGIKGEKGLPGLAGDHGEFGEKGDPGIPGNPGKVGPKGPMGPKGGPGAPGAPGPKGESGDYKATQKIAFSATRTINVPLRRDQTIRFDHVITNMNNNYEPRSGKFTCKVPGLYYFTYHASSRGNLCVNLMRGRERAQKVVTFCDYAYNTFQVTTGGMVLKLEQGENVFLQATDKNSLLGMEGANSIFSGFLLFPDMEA
Chain of complement component C1q (human) (P02747 29-245, chain 3 of 3, further chain): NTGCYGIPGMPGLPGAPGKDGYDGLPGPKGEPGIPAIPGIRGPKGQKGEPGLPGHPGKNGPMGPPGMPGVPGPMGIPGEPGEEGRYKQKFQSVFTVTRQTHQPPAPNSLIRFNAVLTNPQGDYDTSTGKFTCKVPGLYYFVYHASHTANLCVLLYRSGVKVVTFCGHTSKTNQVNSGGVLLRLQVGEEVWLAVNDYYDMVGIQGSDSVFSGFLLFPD
Chain of type III collagen (calf (from calfskin)) (P04258 whole entry): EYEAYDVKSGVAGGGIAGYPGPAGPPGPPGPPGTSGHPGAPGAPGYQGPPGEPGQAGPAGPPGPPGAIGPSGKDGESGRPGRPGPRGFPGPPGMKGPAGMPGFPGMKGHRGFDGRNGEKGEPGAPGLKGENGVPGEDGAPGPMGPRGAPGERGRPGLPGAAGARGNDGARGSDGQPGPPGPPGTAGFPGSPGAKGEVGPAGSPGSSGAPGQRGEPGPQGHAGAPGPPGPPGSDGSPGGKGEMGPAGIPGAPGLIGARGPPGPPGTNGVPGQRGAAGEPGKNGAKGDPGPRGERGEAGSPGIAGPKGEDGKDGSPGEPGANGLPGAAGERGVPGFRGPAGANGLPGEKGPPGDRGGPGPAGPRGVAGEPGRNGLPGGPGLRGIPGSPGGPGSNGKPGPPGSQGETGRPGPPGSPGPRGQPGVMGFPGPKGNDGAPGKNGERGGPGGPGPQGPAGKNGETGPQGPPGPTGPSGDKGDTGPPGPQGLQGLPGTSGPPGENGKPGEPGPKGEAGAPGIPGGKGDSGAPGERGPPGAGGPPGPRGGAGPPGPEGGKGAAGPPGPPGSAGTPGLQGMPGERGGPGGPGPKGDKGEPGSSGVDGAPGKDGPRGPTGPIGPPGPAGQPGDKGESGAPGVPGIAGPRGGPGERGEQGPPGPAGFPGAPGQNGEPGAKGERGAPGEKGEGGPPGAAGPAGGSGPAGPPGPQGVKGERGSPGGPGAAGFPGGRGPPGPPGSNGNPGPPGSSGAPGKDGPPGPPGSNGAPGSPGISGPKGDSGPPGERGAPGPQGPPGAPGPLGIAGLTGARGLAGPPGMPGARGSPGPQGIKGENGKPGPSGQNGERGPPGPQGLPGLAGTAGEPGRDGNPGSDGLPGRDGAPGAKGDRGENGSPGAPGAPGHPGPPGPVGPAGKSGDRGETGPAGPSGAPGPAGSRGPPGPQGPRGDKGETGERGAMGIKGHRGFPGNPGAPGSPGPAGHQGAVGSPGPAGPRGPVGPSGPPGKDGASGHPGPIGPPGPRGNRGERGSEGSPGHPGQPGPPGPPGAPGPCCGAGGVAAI

As a reminder, the Kd is the concentration at which binding is half-saturated. Consider “C‐SSURE, recombinant polyhistidine‐tagged polypeptide encompassing amino acids 902–1053 (C‐terminal SSURE domain) of the PfbB protein (domain or fragment)”, for which the Kd in test [1] is 1160 nM; in test [2] it was 5210 nM; in test [3], 1720 nM.

B1: N‐SSURE, recombinant polyhistidine‐tagged polypeptide encompassing amino acids 144–293 (N‐terminal SSURE domain) of the PfbB protein (domain or fragment)
chain: AETTPEQVKGGVKENTKDSIDVPAAYLEKAEGKGPFTAGVNQVIPYELFAGDGMLTRLLLKASDNAPWSDNGTAKNPALPPLEGLTKGKYFYEVDLNGNTVGKQGQALIDQLRANGTQTYKATVKVYGNKDGKADLTNLVATKNVDININ
notes: also called N‐terminal repeat; SSURE 1
For B1, the Kd with human type VI collagen is 1200 ± 300 nM; in the test with human type IV collagen, 1580 ± 100 nM.
